Data taken from a protein production outcome set (Wang et al. 2014).

Experiment: label from the status in PepcDB records
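Also: failed if final PepcDB status was selected cloned or expressed and not failed if soluble or beyond.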

Sequence | protein production
MNFLVIGSSLAFLLYILATLAIVTRLFHPKGPNITLVLSLATAAIIVHGFNDGLLFFSQDTINFNLPNVISLVSLIITIAVTLVSLRFKVNLLLPVIYGFTGLWQLVILFIPPIDSIPLVVEKVILLSHISFALIAYCVLIIATLYAFQVTYINLKLKSKNLTAVAHLPPLMQVEKQLFSILTVGTAILFISQIIGFVFLDGFLAKENAHKTILSLLSFAIYGLILWGHFEKGWRGHKVLVLMVSASALLTLAYFGSRFVKEFIL | failed
MADAPDTERQAVEPEAGDVLSVSQLNDRIASVVEDAPALDGVRCIGEVTDLHQNSTALYFTLTDGDAELPCMIWANRYRKMDAELEDGTEVILEGDIDYWTEGGKIDLKPWEVIVVGDGDQAAAVERLRSELEERGWFDDEQKQRPPAFPERVGVVTSLRGDARYDIQSAIHEQDPTVDILVKDATVQGSEAPTSIANGIHHLDRSEDVDSIIVGRGGGSDSNLQAFNTERVAEAIFTANTPIVTAIGHTDDRLIADRVADMAAITPTAAGEYIAKSRNDFLASDIGPLEQQLEAAYETFEQEHEHEQELAEAVEEATAPEGLSPVYYKVAIVVLLVLLLLITALWLGVI | failed
MTKNPRTLYEKIWDAHIVERREDGSALIYIDRHLVHEVTSPQAFEALRQAGRPLRRPDRTLAVPDHNVPTTARVDSEGHLLPIADPQSAKQLAALAKNAPEFGVRYISATDPEQGIVHVVGPEQGFTLPGTTLVCGDSHTAAHGALGALAFGIGTSEVEHVMATQTLILTPAKTMEVRVEGKLSPDVSAKDLILHIIHSLGTAGGTGYAIEYTGEAIRNLSIEERLTVSNMSIEAGARTGLIAADEKTFAYLFGRPMAPKGADWEKAVQWWKSLATDKGAVYDKTVIIKAEDVQPSVTWGTSPEDVVPITGVVPDPASFADPAKQAAARRSLEYMGLEPGQKMEGLAVENVFIGSCTNSRIEDLRAAASVVWGRHVADNVKQALVVPGSGLVKRQAEAEGLDEVFKAAGFEWREPGCSMCLAMNPDKVPAGERCASTSNRNFVGRQGPGARTHLVSPAMAAAAAVTGHLTDLRHLEPVKMGEKA | failed
MRVFLCGPLASDGLRQRVLGSAPDGVPARLADHALGAAGATVSPMPAPGASVAGLVMELGAEAGARLLHYQTATGHEARTLAVAGAPALVFFAPPEGLEPWDEAAWGALWGPIVVATAGDVMALWPEVPAERIARRYRLMLVQGASRVRAAADPGPARRRHAAQPGDVRIVRRSQPYANFFAVEEYDLSFRSFGGGMSPTLNRAVFISGDAVTVVPYDPVRDRVLLIEQFRPGPLGRGDAQPWLLEPIAGRVDPGETPEAAARREAVEEAGLDLGALLPVASYYPTPAAKAEYLYSYVALAQLDDGIEGIFGMEGEGEDIRGHLMSFDEMMALIRSGEICNGPLLLTALWLDRERPRLRGE | failed
MAKENEHFLKPDNQSPEESEQLDTVSMEPSQEIWNSTEQETSELQSDTFLSPATVRNSQTTDGYGQAEIVPATPSFMSAAGDSEEVGTPGRSLSEVFSASSLGQRSTRAADRESLQRHELGTNSFSLFSPEKEISFRNRKELEAPSGAAEEIERRVIWGTNVNVDECEQKIKKFLYEFTATTVQQDYEDGDGLQQAKPKPYYLELLTHANEMQYEVINIDLQHVFEFDSELYAYVVTYPTELIAIFDQTLQEVCKEMFATDDSSDIMSSGTSNFHAGRLITRMYNMKDTEIHSMREIDPSHIHQMIGVRGMVVRCSSVIPNMNRAFYSCNNCHWSLFVDIQRGKIEEPIQCDKCQARNSFMLIHNRSVFSDKQMIRIQETPETVPQGETPATMTIVAYDSLVDSARPGDQIEVTGILRAVSVRINPKQRSIRSVFRTYIDAIHILKGKQGRLSNSTEHMDTTSDYYPIGSDTSENALYYFERERSIREISQDPLLYDKLSRSIAPSIYGHEDLKKGILLQLFGGTRKDFSASGGGHFRSDIHVLLVGDPGTSKSLFLQYVHRIAPRGLYTSGRGSSAVGLTAYVTRDPDSNDMVLESGALVLSDKGICCIDEFDKMTDSTRSILHEAMEQQTVSIAKAGIICSLNARTSVLAAANPVESRYNPKLSVVDNIQLPPTLLSRFDLIYLILDNANPEEDKRLGNHITSLFSADTAVVHSDEDPLPSLEPATIHMPNSSHSFLDSTTLASYISYAREKVHPKLNDDAVQRLTKGYVEMRRMGNASKSWSGGIKTITATPRQLESLIRLSEAHAKMRLSDVVESQDVDEALRLVQVAMQQSAIDPITGTIDMDLITTGKSATKRSRIAKLGEAIFQYLQQTKTSDTAVRTSDVLMEVKRSSSMPFTEQDFDDAIHYLVEEERIFRVAGGLRVGTSW | failed
MSLAILTTAYAKIIGLDFSYRKVSTLPIFTKKEDVILSSSHVQTIIYDPSFIADQNTFYLANPAVVIDYFPSKSHRSGIKFSLETFLAMYYKNIAADALADKDLNKSFLYANKAYQLDTDNIETINLLAVIHRRSGDLQTAEAIYKTGMDKGQTNIALLSNYIMLLKSQRRMDEVNTLQDKLNQLDDPDPYQWLGEAYTAKNVGNIKQAEIYFKKALSKAPYLNQAYMGLYKIYIKQNKLKKAQTMLVKALEWTYELDERKLYKYKLYNIEHNIAAIN | failed
MTDQTRTSPLVNRLLKMISLCALGYLLIILAIIIPRGIQSVEQQKQELEEKLALSLSNSAAIALYVNNYDIASEVMDALLLHQEINAVKLASVDGIVFERTTIPSTYKEQNYWSDANRYRLDSPVDGNLIGYLMIHEDHQVIRQQAINQILDQIAVVLIQFLVTFIALIWIVRRLVGKPLTDLSQALSEVRPDHDRKVAVAAEDHHNEIGLVAKSINEFIDASHQALLRERELRQQIERWESYYRTIAEQDTLTGLKNRLGCEKFVLRKQRASTTMVLLLIDLDGFKQVNDTLGHAAGDEVLREIAKRFYALAQTHFSDFVVGRLGGDEFAIYIPLDEFVAESIERFAAQLIESSSEPIGLGQQSAQVGCSIGISHMNSLHIDLEKLLLQADKAMYWVKYRGKHGYHIYRMGEEILPLPSAKELKQDQFR | failed
MFLHSVNLWNLAFYVFMVFLATLGLWDVFFGFEENKCSMSYMFEYPEYQKIELPKKLAKRYPAYELYLYGEGSYAEEHKILPLTGIPVLFLPGNAGSYKQVRSIGSIALRKAEDIDFKYHFDFFSVNFNEELVALYGGSLQKQTKFVHECIKTILKLYKGQEFAPKSVAIIGHSMGGLVARALLTLKNFKHDLINLLITQATPHVAPVMPLDRFITDFYTTVNNYWILNARHINLTTLSVAGGFRDYQVRSGLTFLPKLSHHTSALSVVSSAVPKTWVSTDHLSIVWCKQLQLTTVRAFFDLIDADTKQITQNSKKKLSVLYHHFIRHPSKHFEENPAIISDLTGTSMWVLVKVSKWTYVAYNESEKIYFTFPLENHRKIYTHVYCQSTMLDTNSWIFACINSTSMCLQGVDLSWKAELLPTIKYLTLRLQDYPSLSHLVVYVPSVRGSKFVVDCEFFKKEKRYIQLPVTHLFSFGLSSRKVVLNTNGLYYNLELLNFGQIYQAFKINVVSKCSAVKEEITSIYRLHIPWSYEDSLTIAQAPSSTEISLKLHIAQPENNTHVALFKMYTSSDCRYEVTVKTSFSQILGQVVRFHGGALPAYVVSNILLAYRGQLYSLFSTGCCLEYATMLDKEAKPYKVDPFVIIIKFLLGYKWFKELWDVLLLPELDAVILTCQSMCFPLISLILFLFGTCTAYWSGLLSSASVRLLSSLWLALKRPSELPKDIKMISPDLPFLTIVLIIVSWTTCGALAILLSYLYYVFKVVHLQASLTTFKNSQPVNPKHSRRSEKKSNHHKDSSIHHLRLSANDAEDSLRMHSTVINLLTWIVLLSMPSLIYWLKNLRYYFKLNPDPCKPLAFILIPTMAILGNTYTVSIKSSKLLKTTSQFPLPLAVGVIAFGSAHLYRLPCFVFIPLLLHALCNFM | failed
MAHPFLRTIFEVVITLYMLHNLYKVLGDDEMDLEEMSSFFNKRVNEYEEHMMNNVGGANQYYIETAKLIPRGKEINILDLGCGTGLELDEIFKINNTVRVTGIDLAENMLRKIKEKHKDKLDRLTLIVGDYFSCDIGEKVFDAALSVETLHHFNHEQKIKLYKKIVRSLKDNGVYIEADYMAPNQDYEDHCFNENKRIRLELGIKDGFYHYDTPCTVENQIKMLYKSGFKSVEKVFKAENTVILLAKK | failed
MASFPPRVNEKEIVRSRTIGELLAPAAPFDKKCGGENWTVAFAPDGSYFAWSQGYRIVKLVPWSQCLKNFLLHGSKNVTNSSCLKLARQNSNGGQKNKPREHIIDCGDIVWSLAFGSSVPEKQSRCVNIEWHRFRFGQDQLLLATGLNNGRIKIWDVYTGKLLLNLVDHIEVVRDLTFAPDGSLLLVSASRDKTLRVWDLKDDGNMVKVLRGHQNWVYSCAFSPDCSMLCSVGASKAVFLWNMDKYTMIRRLEGHHHDVVACDFSPDGALLATASYDTRVYVWDPHIGDTLMEFGHLFPPPTPIFAGGANDRWVRAVSFSHDGLHVASLADDKMVRFWSIGDDCPVQVAPLSNGLCCAFSTDGSVLAAGTHDGSVYFWATPRQVSSLQHLCRMSIRRVMPTQEVQKLPVPSKMLEFLSYRV | failed
MRHTLPIAPQFYVTAPQSCPYLEGRLERKLFTALQGEHAQKLNDTLSKQGFRRSQNVLYRPSCAECSACLSARIRVADFEPTRTQRRVMKRNADLRRNATSPWATEDQYALFRRYLDDRHADGGMADMDIFEFAAMIEETPIRSRVIEYSRPGDTPSNRPLSAVCLTDIFDDGLSMVYSFYDPDLAGRSLGAYVILDHIEIAREAGLPYVYLGYWVPGSRKMGYKATYSALEIYKGGRWQAIGQPSDHRAELHPLSVDPIAEQVARISLPEARSGDRSRDLEHHHHHH | not failed
MKAGLIMRHDVMSILHAFCMIAENHSFTRAAAQLHISTSALSQNMRQLEDELGVKLLNRTTRRVGLTEAGHAFLASIRPALAHIDEAMEHARQSRDIPGGTLRLTVPRTAATLLLQPNLAGFMRDYPDIRLDIDVNDGFVDLINERFDAGIRFGDAVQLDMNVVPLGDVLRPAIVASPAYLARFGTPLHPQELINHRCLCHRFTRESGLYRWEFVHGAQRLEITPEAALMVNDKALRLSAARDGAGLTYVFEQDVHEDLQDGRLCSVLEEWLPAADRFYLYYPGRAHMAPKLRVFIDYFCHKAILPSQQSHHR | failed
MSEFRLTQISDTHLGRRFPGLIANFHRVCEHIDADRPDLVINTGDVSFDGPTSRDDVVFAKGLHDALPVTCRYLPGNHDIGDNPTAIGPAPKPPVSEAYRQQFRDIIGEDHWSFEAAGWCFIGLNTLVMNSGLAFEAAQFDWLTQEIARTNGRPVALFLHKPVFLNLPDDPETPETSIRYVPQPARARLIEMFARVDLRLIASGHVHQRRDFTFRHTRHVWAPSVGFKINDQRQDRIAIKETGLVEYRFRGDSLEVRHLRAAGQIDIDIEEVLLQMGGEH | failed
MTNLEAKENNLIKDLASKQRVAIAYSGGIDSTYLLKVAVDELGKDNVLAMVVNSELFLDDEYNKALELAKDLGANAMGVSMSELADERIAANTPESWYYSKQLLYRTIKKAAAEKGFDIVLDGMIMDDNADFRPGMKARTEEGIVSSLQDADLYKSEIRELAKDRGISNWNKVASC | not failed
SGARRQALIDAQSWRLRYERIMREVGVATVEYEAASGRATWGMGAGKVLGEDVARISSLDEWLEHIAPDERGLVEATWSSVASGETWASEQSYTLMRTDGEPLRVRERLACVRGADDSVEMVVGMLRPEPLESGDG | failed
MNAIISPDYYYVLTVAGQSNAMAYGEGLPLPDREDAPHPRIKQLARFAHTHPGGPSCHFNDIIPLTHCPHDVQDMQSYHHPLATNHQTQYGTVGQALHIARKLLPFIPDNAGILIVPCCRGGSAFTAGSEGTYSERHGASHDACRWGTDTPLYQDLVSRTRAALVKNPQNKFLGVCWMQGEFDLMTSDYASHPQHFNHMVEAFRRDLKQYHSQLNNITDAPWFCGDTTWYWKENFPHAYEAIYGNYQNNILANIIFVDFQQQGARGLTNAPDEDPDDLSTGYYGSAYRSPENWTTAXRSSHFSSAARRGIISDRFVEAILQFWRER | not failed
MIAITLLVVIDQVALSQTFPILTIIYALATILPAWGVLVRRLHDIGRSGWWMLISCVPLVGGIILFVFTVMDSQQGDNQFGASPKAAL | failed
